# From publication PMC9064986
# B1: BMPRII extracellular domain (ECD), wild type [human] / BMP10 growth factor (GF)-domain from Pro:BMP10 made in HEK EBNA cells [human] (parent)
# chain 1: SQNQERLCAFKDPYQQDLGIGESRISHENGTILCSKGSTCYGLWEKSKGDINLVKQGCWSHIGDPQECHYEECVVTTTPPSIQNGTYRFCCCSTDLCNVNFTENFPPPDTTPLSPPHSFNRDET
# chain 2: NAKGNYCKRTPLYIDFKEIGWDSWIIAPPGYEAYECRGVCNYPLAEHLTPTKHAIIQALVHLKNSQKASKACCVPTKLEPISILYLDKGVVTYKFKYEGMAVSECGCR
# Experiments:
# [1] = variants of: B1; experiment: ELISA (prodomain displacement); details: with BMP10 growth factor (GF)-domain from Pro:BMP10 made in HEK EBNA cells [human]; BMPRII ECD at 125x excess over Pro:BMP10; lower reading = more prodomain displaced; parent: 0.42; read off a plot
# [2] = variants of: B1; experiment: native PAGE prodomain displacement (densitometry); details: with BMP10 growth factor (GF)-domain from Pro:BMP10 made in HEK EBNA cells [human], lower ratio = more prodomain displaced, read off a plot
# [3] = variants of: B1; experiment: SPR (Biacore); details: with Recombinant human BMP10 growth factor (GF)-domain (R&D Systems) [human], BMP10 immobilised on a CM5 Biacore chip
# [4] = BMPRII ECD at 2-fold excess (2x) over Pro:BMP10, parent: 0.59
# [5] = BMPRII ECD at 5-fold excess (5x) over Pro:BMP10, parent: 0.46
screen value [1],"screen value [2, 4]","screen value [2, 5]",Kd ([3]; parent: 1.19e+03 nM) [µM],koff ([3]; parent: 0.161) [s⁻¹],kon ([3]; parent: 1.35e+05) [M⁻¹ s⁻¹],Variant
0.42,0.49,0.19,,,,chain 1 E72K
0.75,0.99,0.93,,,,chain 1 G63E
0.67,0.9,0.77,,,,chain 1 G63W
0.57,0.78,0.6,,,,chain 1 G63A
1,0.93,0.88,,,,chain 1 Y41C
0.95,0.82,0.72,,,,chain 1 G42D
1,0.93,0.88,,,,chain 1 G57E
0.47,0.77,0.55,,,,chain 1 Q66H
0.52,0.64,0.39,1.32,0.14,106000,chain 1 N100S
0.3,0.7,0.66,,,,chain 1 S81P
